*1 amine or outer side, *2 acyl side, *3 side chain or, on linkers, in order; H or OH if unused. Bridges are numbered along the chain shown (N, C = ends). Primed or numbered codes have the meaning given here. The star is where a group is joined. PEG3′ = three-unit polyethylene glycol linker; NOTA = O=C(O)CN1CCN(CC(=O)O)CCN(CC(=O)*)CC1; TBMB = c1c(C[*:1])cc(C[*:3])cc1C[*:2]
Target: T1, His-Tagged human CD38 recombinant protein (human) (UniProt P28907)
T1 sequence (P28907 whole entry, looked up): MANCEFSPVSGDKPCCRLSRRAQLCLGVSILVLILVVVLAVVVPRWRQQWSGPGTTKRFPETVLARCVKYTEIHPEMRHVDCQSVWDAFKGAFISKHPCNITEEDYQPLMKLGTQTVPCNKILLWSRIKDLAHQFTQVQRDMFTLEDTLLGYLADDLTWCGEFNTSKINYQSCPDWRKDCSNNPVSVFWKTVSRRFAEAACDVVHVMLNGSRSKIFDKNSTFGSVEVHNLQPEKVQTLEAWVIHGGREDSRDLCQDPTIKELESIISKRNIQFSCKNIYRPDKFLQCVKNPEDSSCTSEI
Assay: SPR

{NOTA-PEG3′}-ACVPCADFPIWYC-NH2 (linker 2-5-13 via TBMB) [AJ206 (NOTA-conjugated bicyclic peptide)]
Kd: 19.1 nM
